# Measurements as given in the nanobody polyreactivity screen of Harvey et al. (2022).
# Assay: yeast display, Sf9 membrane polyspecificity reagent, FACS + sequencing; frameworks hold sequencing errors
# Method in brief: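 Galactose-induced (36–48 hours) yeast carrying a synthetic nanobody display library were exposed to 10% biotinylated, detergent-solubilized Sf9 membrane reagent at 4 °C for 1 hour. FACS followed streptavidin microbead enrichment, using low and high (top ~1%) gates for expression (anti-HA) and reagent binding (streptavidin). Colony PCR, MiSeq 2 × 250 sequencing and CDR-length filtering followed. Labels for polyreactivity reflect the gate of origin.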
row,Sequence,polyreactivity (PSR sort gate)
1,QVQLVESGGGLVQAGGSLRLSCAASGFTFWIYAMGWYRQAPGKERELVAAISASGGSTRYADSVKVRFTISRDNAKNTVYLQMNSLKPEDTAVYYCAAYHGLRRGFDYWGPGTQVTVSS,high polyreactivity
2,QVQLVESGGGLVQAGGSLRLSCAASGFTFWIYAMGWYRQAPGKERELVAVISRGGSTYYADSVKGRFTISRDNAKNTVYLQMNSLKPEDTAVYYCNAVGVRGYDYWGQGTQVTVSS,high polyreactivity
3,QVQLVESGGGLVQAGGSLRLSCAASGFTFWIYAMGWYRQARGKEWELVAAISASGGYTRYADSVKGRFTISRDNAKNTVYLQMNSLKPEDTAVYYCAAYHGLRRGFDYWGEGTQVTVSS,high polyreactivity
4,QVQLVESGGGLVQAGGSLRLSCAASGFTFWLYAMGWYRHAPAKEREFVAAISTSGGSTYADSVKGRFTISRDNAKYTVYLQMNSLKPEDTAVYYCNAGYVLYYDYHLFYWGQGTQVTVSS,low polyreactivity
5,QVQLVESGGGLVQAGGSLRLSCAASGFTFWQYAMGWYRQAPGKERELVAAITWDGGSTYYADSVKGRFTISRDNAKNTVYLQMNSLKPEDTAVYYCAKLFGGTYYEYDYWGQGTQVTVSS,low polyreactivity
6,QVQLVESGGGLVQAGGSLRLSCAASGFTFWRNAMGWYRQAPGKERELVAAISSGTGRTYYADSVKGRFTISRDNAKYTVYLQMNSLKPEDTAVYYCAKVNWRTSYGTSTRDYWGQGTQVTVSS,low polyreactivity
7,QVQLVESGGGLVQAGGSLRLSCAASGFTFWRYAMGWSRQAPGKERELVAAISRTGGRTYYADSVKGRFTISRDNAKITVYLQMTSLKPEDTAVYYCAAVKYETYRYNYDYWGQGTQVTVSS,high polyreactivity
8,QVQLVESGGGLVQAGGSLRLSCAASGFTFWRYTMGWYRQAPGKERELVAAISGGTTTYYADSVKGRFTISRDNAKNTVYLQMNSLKPEDTAVYYCAAYSQRARTYDYWGHGTQVTVSS,high polyreactivity
9,QVQLVESGGGLVQAGGSLRLSCAASGFTFWTYAMGWYRQAPGKERELVAAIDSGGSTYYADSVKGRFTISRDNAKNTVFLQMNSLKPEDTAVYYCIAGPSVTSGYDYDYWGQGTQVTVSS,low polyreactivity
10,QVQLVESGGGLVQAGGSLRLSCAASGFTFWTYAMGWYRQAPGKERELVAAIDSGGSTYYADSVKGRFTISRDNAKNTVYLQMNSLKPEDSAVYYCNAGPSVTSGYDYDYWGQGTQVTVSS,low polyreactivity
11,QVQLVESGGGLVQAGGSLRLSCAASGFTFWWYAMGWYRQAPGKERELVAAISSGGSTNYADSVKGRFTISRDNAKNTVYLQMNSLKPEDTAVYYCNALGVGHSGFTKFSRYYYWGQGTQVTVSS,high polyreactivity
12,QVQLVESGGGLVQAGGSLRLSCAASGFTFWYYAMGWYRQAPGKDRELVASISASGGRTNYADSVKGRFTISRDNAKNTVYLQMNSLKPDDTAVYYCNAASLIAAYGDYYWGQGTQVTVSS,high polyreactivity
13,QVQLVESGGGLVQAGGSLRLSCAASGFTFWYYAMGWYRQAPGKERELVAAISWSGGSTSYADSVKGRFTISRDNAKNTVYLQMNSLKREDTAVYYCAASDYYYYSWRPGDTWYEYWGQGTQVSVSS,high polyreactivity
14,QVQLVESGGGLVQAGGSLRLSCAASGFTFWYYAMGWYRQAPGKERELVAAITRGGNTNYADSVKGRFTISRDNAKNTVYLQMNSLKPEDTAVYYCAVRFSAPGYYYWGQGTQVTVSS,high polyreactivity
15,QVQLVESGGGLVQAGGSLRLSCAASGFTFWYYAMGWYRQAPGKERELVATITSGDSTKYADSVKGRFTISRDNAKNTVYLQMNSLKPEDTAVYDCAAEKVLPFIGYDYWGQGTQVTVSS,low polyreactivity
16,QVQLVESGGGLVQAGGSLRLSCAASGFTFYANAMGWYRQAPGKERELVAAISKSGGRTYYADSVKGRFTISRDNAKNTVYLQMNSLKPEDTAVYYCAAVGSVNYEADFDYWGQGTQVTVSS,high polyreactivity
17,QVQLVESGGGLVQAGGSLRLSCAASGFTFYAYAMGWYRQAPGKERELVAAISKRGGITYYADSVKGRFTISRDNAKNTVYLQMNSLKPEDTAVYYCNADRRRRSGGFAGWHFQRNDYWGQGTLVTVSS,low polyreactivity
18,QVQLVESGGGLVQAGGSLRLSCAASGFTFYAYAMGWYRQAPGKERELVAAISTSGTDTYYADSVKGRFTISRDNAKNTVYLQMNSLKPEDTAVYYCAAELYLYGFYEPIYPYSYDYWGHGTQVTVSS,low polyreactivity
19,QVQLVESGGGLVQAGGSLRLSCAASGFTFYAYTMGWYRQAPGKERELVAAIRTGSSTYYADSVKGRFTISRDNAKITVYLQMNSLKPEDTAVYYCDAPRWRRPYRYDYWGQGTQVTVSS,high polyreactivity
20,QVQLVESGGGLVQAGGSLRLSCAASGFTFYENAMGWYRQAPGKERELVATISYSGGTTYYADSVKGRFTISRDNAKNTVYLQMNSLKPEDTAVYYCNADYFYYGFPDDYWGQGTQVTVSS,low polyreactivity
21,QVQLVESGGGLVQAGGSLRLSCAASGFTFYEYAMGWYRQAPGKERELVAAITQTGVRTYYADSVKGRFTISRDNAKNTVYLQMNSLKPEDTAVYYCAADDPRQRPRGHYDYWGQGTQVTVSS,low polyreactivity
22,QVQLVESGGGLVQAGGSLRLSCAASGFTFYFYAKGWYTQSPGKERELVASISSSGGSTYADSVKGPFTISRDNAKNTVYLQMNSLKPEDTAVYYCAATEIFRFRYVAVGYDYWGQGTQVTVSS,low polyreactivity
23,QVQLVESGGGLVQAGGSLRLSCAASGFTFYFYAMAWYRQAPGKERELVAAISSGGSTKYADSVKVRFTISRDNAKNTVYLQMKSLKPEDTAVYYCNRYYPGSGPLGYWGQGTQVTVSS,low polyreactivity
24,QVQLVESGGGLVQAGGSLRLSCAASGFTFYGNAMGWYRQAPGKERELVAAISGRGGSTYYADSVKGRFTISRDNAKNTVYLQMNSLKPEVTAVYYCAIYVSWPLYYYWGQGTQVTVSS,low polyreactivity
25,QVQLVESGGGLVQAGGSLRLSCAASGFTFYGNAMGWYRQAPGKERELVAAISGRGGSTYYADSVKGRFTISRDNAKNTVYLQMNSRKPEDTAVYYCNKRGPYRWYSAPYGYWGQGTQVTVSS,low polyreactivity
26,QVQLVESGGGLVQAGGSLRLSCAASGFTFYGNAMGWYRQAPGKERELVAAISSGGSTNYADSVKGRFTISRDNAKNTVYLQMNSLKPEDTAVYYCAASYPGQVSFPYASIGFDYWGQGTQVTVSS,low polyreactivity
27,QVQLVESGGGLVQAGGSLRLSCAASGFTFYGNAMGWYRQAPGKERELVAAISSSGGITYYADSVKGRFTISRDNAKNTVYLQMNSLKPEDTAVYYCAAVQGTPDYEYDSWGQGTQVTVSS,low polyreactivity
28,QVQLVESGGGLVQAGGSLRLSCAASGFTFYGNAMGWYRQAPGKERELVSAISYNGGSTYYADSVKGRFTISRDNAKNTVYLQMNSLKPEDTAVYYCAAGYYWQYTSSSAQYAYDYWGQGTQVTVSS,low polyreactivity
29,QVQLVESGGGLVQAGGSLRLSCAASGFTFYGNSMGWYRQATGKERELVAAITSGGSTYYADSVKGRFTISRDNAKNNVYLQMNSLKPEDTAVYYCAAVNGWRRVKRFDYWGQGTQVTVSS,high polyreactivity
30,QVQLVESGGGLVQAGGSLRLSCAASGFTFYGYAMGWYIQAPGKERELVAAITGSGARTYYADSVKGRFTISRDNAKNTVYLQMNSLKPEDTAVYYCNKVGVTRVGYTYRVREYDYWGQGTQVTVSS,high polyreactivity
